Source: the NTF2 design screens of Basanta et al. (2020)

Experiment: protease stability score; higher = more stable; yeast display proteolysis, trypsin and chymotrypsin;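 also: relative to predicted unfolded state with 0 unfolded-like and 1 meaning tenfold more protease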

Sequence | protease stability score
DEEERLRHEALKEWLETLVTGDERIIMEQLDPDARIDINGQEIHGMELFAKFMSEMGINVFDLKRTTIQGDKLRIEGVIKFNGKTHRVHVRSTKVDGRWRNKEVRVE | 1.43
DEEERLSREILELNIEVLETGNEHVVRELLDPHVKMEVGDKEYHGREEFVTLFHHFGIDHFHIHEIRFIGNKAEMHVSSEINGRRFSILIIAHKVNGKWIMHTMHVE | -0.037
DEEERLTRDWAKQWIHFLETGDEDRLMELADPHVRIDVNGQEFHGREQFNKFMSHLTTHARFETKEVQVIGNKTHIDTRMSIDGKTTETLVILIIWNGRLKELRIHHH | 1.47
DEEERLVRKFSSVVKHIFKTGDWKRFTELADPDTLLIIIIGDKEIRHHGREEITHALREWFRILGIDHFHIRDERYQGDKVELDTEVRYNGQTHDFVIEVIVVDGRAKEFKIRFR | 1.67
DEEERLWEAAEYFFIHLLQTGDEEMVTKYADPHVRSDVNGVEYHGMNQFVEEWRRLVERIDHLESHHIDRVEIYNGVVTVHLRVHGEVNGKRDTFRVIIFMYKYNGQWRIHSYEFK | 1.1
DEEERLWHEFLEEFLRYIITGNWKKIADLADPNVRYQQGEKTNIGREDFERHFEKTYNDLGVDHFEIDHVDIQGNKIEIHLWLRVNGQEHKIHIDVKVVNGRIKYVRIEYE | 1.5
DEEERMAHEVAEILLRSLHTGDWRRDMDLLDPHVRFDFNGVHLHGREEWLRHLHEFWRKFGVEFFDLHEDNISIQGDKAIMDGQIEFNGRRTKQKLEITVIDGRVKEVRVEIH | 0.59
DEEERQLEEFLELLVEALRTGDWHTLMRMLDPNVKVHIDGKDIHGREEHIRLHIEQWERLGYERIEFRVRIDEVHFINGVVEVDYTQIDQFDGQRLQLRVRIFLLKFDGRWSIDKVVFR | 2.46
DEEERQVLLLAKILIHLYYTGDEESFRKLLDPHVRIIWNGRDFVGRENWYELLHRVLRHWRIHHIDIHDFDVQGNKARFHTQIVVDVNGKHIRSHTEVIYVVVNGRVDEIEVIIR | 2.37
DEEERRDREWLHRMLHVHHTGDEEMFKRLADPHTLLRVDGKDVHGREEIAHFIRERGYRVEVHARHIEIINGRIDNETTVIVRINGRTIHEETHLHIRKINGKWILTHWHIE | 0.654
DEEERRLHEIAELVVHRLVTGDEDTLNKLFDPNTRFELIFNGQNFELHGREALMEWLQRRRNVREKHEVRRIEYQGDKLHVDGTLIIEYGDKRRESEVDLRIRVVNGRVHTIDLRLK | 1.48
DEEERRTREFTEHVLHAEETGDFDSFVELADPNVRMRIGDKEIHGMEMVAKWLVHMRIKHFNLHRIEIQGEKVHIDGEIKGRFNGRDTETKVIFHIVVIDGRLHSQIIQIH | 1.54
DEEERSAKDFSERVFEEDRTGDEERWERLADPNVRLDINGKEHHGRELVMKYRLEFLRRVKNMVIRLEHIEIRVFDGKLTLHIHGVINVDGKTIHFDLIIIVRKVDGRWRIDEVIIEIK | 1.4
DEEERSFELALRLLERTIKTGNEDDWRRMLDPHTKIIIGDKEFHGMEDAEKILREHIHRIDHFHDIHLHRIRVQGDKIHMDVRLDGRINGRRDILIARFTVVKVDGRWVIHQVESH | 1.22
DEEERVRDEIERLIEESLRTGDWRHLSELFDPNVRMEVGDKDIIGRERVHQAIHDFWKSFGADHRHLHDIEEINGVVIMHMRYRVGNKTVHFHVIMIKINGRWFLHSVHIHID | 1.11
DEEERYIIEMLRILAEAILTGDEDETHNQLDPDVRIEWNGVELHGRDELLRFMHHLRIDIKRVEFRSITKVDGRVHTDGLLDVTYFIDGRVFRRRTHTELIILKVDGRWTFHSIKID | 2.19
DEEESIERELSRRWLHWFITGDEERAKKLADPRARYHQGDKEIHGWDNLRKFLFEILEKIPNLRIIIRDSDVINGRIHYDTELHIDGVHIKTHLIIVIVDGRLKELHVEEH | 0.06
DEEESRIEKVNRRWLRAYATGDEDTLNHLIDPRVRMDIDGVDLHGREEFEEWLRRIDVIRTFELKFMHIQGEKVNNDVQFDTRIDGQNRSVRNKLIIEKVDGKWVVKTIHFI | 0.228

Sequence | protease stability score
DEEHDIDRKIFEMIVDVFLTGDWKRWFDNADPDVKTEIRIGDKKIDLHGWEFFLRFLEEELRRFKNIQIMSTDVKLFNGKVDVNIEIRIGDKTQHYIYHIHTFNGVIKHVHVHSK | 1.28
DEEHEAIEQFLRIIIENARTGNEEFLYKYFDPHVRIHIDGQNMVGREEWVEWLRQIRHQVDSFHIKHIEVQGDKLILEGHLEIKLHINGQELHKHVEVRYEINKVNGRWLLRSVHIK | 1.74
DEEHEDAVRIWEEFLEAVITGDWDRLKTLLDPNVRLHQGDFEIHGREKIVKTIHEMRIHIHDHRFRDSHFINGRVKLHVESDKEIIYGNKKTRLTVHVTVIIHKVNGVWLVHSVHVE | 0.986
DEEHEDMDKYSKLLVEMLKTGDEHIFKILADPHVRIDINGREYHGWEDWVEVVRELRIHRLHFTHMEIQGDKLHLHLKSKFSFDGRVHEIEIRIHAKKVNGRWVIKEIRII | 2.29
DEEHEELKKMVQHSLQLLMTGDEETIYHLLDPHAKVIINGVEYHGMSLSAKIMIKMARDLGVERFEVHLEHSRWFDGRVDVHISRRVNGQTEEVHINSKKINGRWHLKSIIFN | 1.06
DEEHEETHRWVELFIRHHLTGDEDFIMKMLDPNTRWHIDGRTFHGMETVFDARKKERNKLGADHVRFTSFEIQGDFLHILGSIHIDGKELDEKIIIEVIDGRLNSILVTRR | 0.661
DEEHEEVERMWERFIKYYLTGNEELFDHLADPNVRLIIGDKIAIGREEVRKLWERRRREIRIRHMNFHSVRWYDGRIDLEVEVNLDVNGREIKTEQRIHIKVINGRVKDVEIRVE | 0.743
DEEHEEYHRMFRVVEHAYRTGDWKTLSDYMDPNAKQTVGNKEYHGREQVDESLKRLGIKVTDVEDSKEDHINGRLVVRLDQHLEVNGRRIKIHVLIIIIKINGRWIITENMYIFH | 0.141
DEEHEEYMDWAIIHLHDWLTGDEDHHNELADPNDRLELVIGDKRIERIGREEVTKQLHEFRKHMRVHRIEIKTRNVYNGKAHLHGIMHFRVGDKKYDVETHIVIVIINGVLKQVKIEIR | 0.773
DEEHEFLITMVKLVSTWFLTGDFETYIDLADPNTRQHVNGRYSVGREDAVKLEEEMLREIRIRDIRVKHIIRQGDKIELEFRFHMEVDGRVEDITVEVRIFLVNGRLHFLEIRFD | 0.743
DEEHEFMRKMSEEFVHIWLTGDEERLIKLLDPNAKLNIDGVEHHGWKEVHRYLKELKEELGVDHFHVRRITIRYIDGVAISIVHYESHINGRHHELEIHNVVNKIDGRWHLQSIHIHFH | 2.16
DEEHEHAKRAVKKTLTDYYTGDEDSISDLADPNVIQDVGDKEYHGREEFLRSMHKIIKWLGVDHIEVHRVHLINGRVFSRLRLEVDGREVELIIIILKINGRWHWHSMRIIHR | 1.03
DEEHEHLHKWLDMLLYAHKTGDPEVILKNADPHVRSEVDGREVHGMEKFARDLYEMRIHRIHIKDVKTIGNKLDVDGRLDGEFNGKRVDSDVHLHLVVIDGRLHSLHIKHR | 0.558
DEEHEHLKELARLILKWWYTGDEQHMLELADPNVRSHVNGVHLVGREEMMKVWVEVLEFLGADHVEDKRSSIQGDKTILHTSHHVNGKEIEVDVDIRIVDGKDHTLEFRIK | 1.44
DEEHEHQHEFAQIIMEMWKTGDWKTMFKLADPNARTIFEGRRLHGRELIWEFLFRLLKKLGVDHEKDRHSHNIGDKIHIHGEEEIGDKKVEVHIHIVIFNGRVKELEIRRREL | 0.511
DEEHEIIRKMFEIVKDMFKTGDEEITERLLDPNARIDIDGRDIVGRESVLWLFSQFKNLRHRDDRIDYQGNFVIVRGKLDINGRRVEIEIVAAKVDGRWILHSIKMQ | 1.43
DEEHEINRRIAEWWLHSVKTGDEESIENNADPNTRIVVNGVHFHGMEESHKWLHEFLRRFKNATLEIHSMEVINGVTHIHGTLVQGDKRIRVHIHVHVINGRIHTISHEHR | 1.27
DEEHEIVELIMRIFLHAVLTGDWELIEKLADPNVRIIIRINGQEIHFHGREHLRHRFEHLRIDRMEIHDYKNVGDWLDIDGRENGNFNGRKHETRVHIHIRVINGKLHELRVTYR | 1.68
